Data on one substance can be found in US20230416362A1.

The target in assay [1] is mTIGIT (ELISA of Table 7) (mouse) (UniProt P86176). As to the kind of experiment: mTIGIT/mCD155 competition ELISA; competitor mCD155. Background: ELISA stands for enzyme-linked immunosorbent assay.
Assay [2] has the same target. Description: ELISA binding.

Chain of mTIGIT (ELISA of Table 7) (mouse) (P86176 29-145 limits assumed): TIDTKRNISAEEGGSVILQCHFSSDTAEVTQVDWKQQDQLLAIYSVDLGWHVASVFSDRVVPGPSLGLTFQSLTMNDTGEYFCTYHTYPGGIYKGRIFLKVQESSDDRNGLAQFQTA

The IC50 is the concentration needed to halve the response being measured. Read a high IC50 as a need for much substance. The EC50 is the concentration needed to bring the measured effect to its halfway point. Read a low EC50 as an effect from little substance. With 1G9 (Bio X Cell, #BE0150) (antibody), the half-maximal inhibitory concentration (IC50) in assay [1] was found to be 1.5 nM. Moreover, the 50% effective concentration (EC50) in assay [2] is 0.3 nM.
